What was measured:
[1] = Peptide gelation (incubation, OD 550 nm, inverted tube); format: physicochemical; conditions: for self-assembly behaviour observed over time / gel formation in water: DI water; for self-assembly behaviour observed over time: up to 40 h; for gel formation in water: C-terminus Val mutated
Protocol: UV-Vis spectroscopy: The peptides were dissolved in DI water at the respective concentrations and 100 μL was aliquoted into each well of a 96-well microtiter plate, with a minimum of 3 wells per condition. UV-Vis absorbance measurements at 550 nm were recorded on a Tecan infinite M200 Pro microplate reader at intervals of 30 min for the first 16 hours and subsequently at increased time intervals.
Peptide hydrogel (GV8): GV8 peptide was dissolved in DI water at the desired concentration (between 10 and 20 mM) and incubated at ambient temperature of 23° C. to 25° C. for at least 12 hours. For active agent encapsulation, GV8 hydrogels were prepared at concentrations of 20 mM to 50 mM with 1% Dimethylsulfoxide (DMSO) added per 10 mM of peptide in PBS with a pH range of 7.2 to 7.4 to form GV8 precursors, which gelate in a sealed environment under ambient temperature of 23° C. to 25° C. with a typical gelation time ranging from 5 h to 9 h (FIG. 1), depending on the concentration of the GV8 precursor. The GV8 precursors were prepared in various types of buffer solutions—such as DI water, Dulbecco's Modified Eagle's medium (DMEM), sodium acetate buffered solution with a pH range of 4 to 5, and/or buffered solutions with a pH ranging from pH 4 to 7.4.
Peptide hydrogel (GI8): GI8 peptide was dissolved in DI water at the desired concentration (between 10 and 20 mM) and incubated at ambient temperature of 23° C. to 25° C. for at least 12 hours. GI8 hydrogels were prepared at concentrations of 20 mM to 50 mM with or without 1% Dimethylsulfoxide (DMSO) added per 10 mM of peptide in PBS with a pH range of 7.2 to 7.4 to form GI8 precursors, which gelate in a sealed environment under ambient temperature of 23° C. to 25° C. with a typical gelation time ranging from 2 h to 7 h (FIG. 1), depending on the concentration of the GI8 precursor. The GI8 precursors were prepared in various types of buffer solutions—such as DI water, Dulbecco's Modified Eagle's medium (DMEM), sodium acetate buffered solution with a pH range of 4 to 5, and/or buffered solutions with a pH ranging from pH 4 to 7.4. […]

topical puncture wounds = test: In vivo wound healing assay, hydrogels applied to topical puncture wounds; design: species or system mice; conditions: especially at initial stages (0 d to 2 d), n=3
Protocol: In vivo assay: To investigate the wound healing property of the hydrogels, 30 μL GV8 and GV8+ hydrogels loaded with 200 μg/mL ADMSC secretome were applied to topical puncture wounds on non-diabetic mice models, and monitored for a period of 2 d, 5 d and 7 d at various points in time. Representative wounds have been presented in FIG. 26, illustrating the healing of untreated (blank) and treated wounds over 7 d.

[2] = in the presence of Mg2+; cited from earlier work
[3] = Nanoindentation of GL8 beads; format: physicochemical

| Substance | self-assembly behaviour observed over time [1] | gel formation in water [1] | also measured |
| --- | --- | --- | --- |
| Ac-GLYGGYGI-NH2 [GI8] | remained in solution with some gel-like formation observed overtime |  | incubation time to hydrogel formation ([1]; 10 mM peptide in water, inverted tube test): 1 h |
| Ac-GLYGGYGV-NH2 [GV8] |  |  | effect on wound closure versus control wounds (topical puncture wounds): promoted and accelerated wound closure; minimal critical gelation concentration (cgc) ([1]; in water): 10 mM |
| E2(SL)6E2GRGDS |  |  | storage modulus (G′) [2]: about 480 Pa |
| GA8: Ac-GLYGGYGX-NH2 (SEQ ID NO: 11) peptide, C-terminus Val residue mutated to Ala (Ac-GLYGGYGA-NH2) |  | not able to form gels in water |  |
| GF8: Ac-GLYGGYGX-NH2 (SEQ ID NO: 11) peptide, C-terminus Val residue mutated to Phe (Ac-GLYGGYGF-NH2) | remained in solution with some gel-like formation observed overtime | not able to form gels in water |  |
| GK8: Ac-GLYGGYGX-NH2 (SEQ ID NO: 11) peptide, C-terminus Val residue mutated to Lys (Ac-GLYGGYGK-NH2) |  | not able to form gels in water |  |
| GL8: Ac-GLYGGYGX-NH2 (SEQ ID NO: 11) peptide, C-terminus Val residue mutated to Leu (Ac-GLYGGYGL-NH2) | self-assembled into large (mm-size) and stiff beads | not able to form gels in water | Young's modulus, dried ([3]; dried condition): 8.34 GPa; Young's modulus, hydrated ([3]; hydrated condition): 3.03 GPa |
| GS8: Ac-GLYGGYGX-NH2 (SEQ ID NO: 11) peptide, C-terminus Val residue mutated to Ser (Ac-GLYGGYGS-NH2) |  | not able to form gels in water |  |

Source: patent US12037418B2, “Hydrogel-forming peptides, and methods of use thereof” (Nanyang Technological University, priority 2020, dated 2024)
